{"source": "a protein production outcome set (Wang et al. 2014)"}
{"test": "label from the status in PepcDB records"}
{"sequence": "MDVFDGLPDPIIVDILNKVGDVKTLLRCSSLSKRFNSLVPQSESLTLRLDHSVSDSPVVTSIFRSLFNGLVSLLSKPAKPITITTLSPSLPFKILSRFDRIRNLDVELPGGDVKLEKGAAVKWKAEFGKTLKSCVIVAFRSAGTVSSPVAVEGESDAEFVTGLKTRVVWTISALMAASSRHYLMREVVKEHEEIESLVMRDKEREGTVVMNEEGLKELRNTEARVEDEERVVKNKRSVVPSVRMSMRHAPSLKLKSGICLESATLVIVRPSGADFEVGDDAELATEAFVGDCMYGEAVVALLKCKKNALEMNSF", "protein production": "failed"}
{"sequence": "MDVGSFGFTIAGLVVGFIVGMTGVGGGSLMTPILLWFGIHPATAVGTDLLYAAITKASGVWVHARNKNIDWKITGLLSLGSVPAAALTLWFLSTLHTDTSALNAIIKQGLAVVLILTALAILFKSRLQAFASRHAGDHYHLSDRSLNILTVLTGVVLGIMVTLTSIGAGALGTVALFLLYPFLVTRRLVGTEIAHAVPLTLVAGLGHAGMGNMDWSLLGYLLLGSLPGIYLGSHLTGRISDRVLRPCLATMLLLIGYKLAF", "protein production": "failed"}
{"sequence": "MDVHQLTEQALALLLQHTGADGGAILIEVDGEIRVAASQGIGSAHTLANNDRVRSALRTERRHRVQLPEDLVVDGMLAQFRPKEVIIDPVRHKEVVLGAVVLASGQGFSAEDRNRLDVFERGLALALHNALLYDRLQTLAALDPLTGALEHHHHHH", "protein production": "not failed"}
{"sequence": "MDVLPLLLLVAGSAAVAGAARRTPVPAPLLLVAAGLIASYIPGVPEYTLDPEVVLPLVLPPLLYTAASDSSYLDLRAQLRPVALLSIGYVLFATLVVGWAAYLLVPGLPLPAALVLGAVVAPPDAVAATAVARRVGLPSRITTILQGESLVNDATAITAYKVALAAAVGEGATWAHGVGEFLLAAVGGVAVGLLLMVPLHWLRTHLKEALLQNTLSLLIPFVAYGLAEWAHASGVLAVVVVALYLGHRNYEVDFATRLQEEAVWKMVAFVLESAVFALIGLQLQVVLKGLGEYRGVDAAWYAVAVFLVVVLARFVWVYPATFLPRLLSARIREREENPTWKAPFIIGWAGMRGVVSLAIAFSIPLTVHGQGKGPFPGRNLILFLTFTTVIGTLVVQGLTLPPLIRLLRLPGRDAQAETLAEANAQAQASRVAELRLNDLLDDERNALPPPLADRLRDVLERRRNAVWERLGAVNPVTGESVDDTYRRLSREMIAAERSVFVRLRNGRYIDDEMLRTLLRRLDLEEAAAFREAT", "protein production": "failed"}
{"sequence": "MDVPSSWDALRKQARKIEAQLDEQMHSYRRLVSTKALSKSDGNESDLEAGIDLLLRQLQQVNAQMQAWVSSGGSEMVSHTLTRHQEILQDLTQEFYRHRSSLRAKQEHASLLEDFREFDRTRLDLEDGYGSEQALIKEHMGINRNTAQMDGVISQAQATLGTLVFQRSTFGGINSKLSNVASRLPTVNTILAAIKRKKSMDTIILSLVAAVCTFLIFIYWITK", "protein production": "failed"}
{"sequence": "MDVQFAILAFTSLFSILNPFGVIPTYLVLTSQYSKVEKIKIIRKSMLAAFIILMMFALLGNQIIGFFGISIPAIKITGGVLLFLIALDMIQGNTSKVEKSPKLESHLKSHAEEIEEMDEIAIVPLTVPLLTGPGSISAVIAMMAQTSDFDGKISVIIAISLCIIISYFVLKFSKDLEKMLGKIGFKVLTKMMGLVLTAISIQMALDGILMVFG", "protein production": "failed"}
{"sequence": "MDWAQLLPSMKTRTGVATSPPPARSFYCHPSARKNPLHLHLITDAVARNILETLFRTWMVPAVVVSFYDAEELKPLVSWIPNNHYSGLYGLMKLVLPSILPPSLARVIVLDTDVTFSSDIVELWALFDHFSDKQVVGLVENQSDWYLGNLWKNHRPWPALGRGFNTGVILLWLDRLQQTGWEQMWKVTAKRELLTLMATSLADQDIFNAVIKEHPHLVHPLPCVWNVQLSDHTRAERCYLEAADLKVIHWNSPKKLRVKNKHAEFFRNLHLTFLGYDGKLLRRELFGCPNQFPPGAEQLQQALTQLDEEEPCFEFRQQQLTVHRVHITFLPHQPPPPQPHDVTLVAQLSMDRLQMLEALCRHWPGPMSLALYLTDEEAQQFLHFVETSPVLSMRKDVAYHVVYRDGPLYPVNQLRNVALAQALTPYVFLSDIDFLPAYSLYDYLRASIEQLELDSRRKTALVVPAFETLHYRFSFPNSKAELLTLLDAGSLHTFRYHEWPQGHSSTDYSRWREAQAPYSVQWSADYEPYVVVPRDCPRYDPRFVGFGWNKVAHIIELDAQEYEFLVLPEAFSIHLPHAPSLDISRFRSSPTYRNCLQALKEEFHQDLSRRYGSAALKYLTALQQARSRA", "protein production": "failed"}
{"sequence": "MDWIESVKSYIKVVEEGSFNAAAYQLNTSGSAISKRINWLEERVGVQLLTRTTRSVHQTEAGLLFYQRARLQLDQWQHLVDETRAINQTPAGLLKIGATLAVGSKFIIKYLDEFLATYPKIKVQLITTLPGQVPEHNVDVFISRELEQLNTFSYKATHLFEHHSGFFASKDYLDKYGTPNNINELKAHNMLIWGERPIKEIKLTNNKRVTLRGNFATTNPEALFHAAKRGMGILLTSQQMVIDDLQSGALVPILPEITTDHTRVNAYYPTLDYEHTRTQLFIKYLKTKLS", "protein production": "failed"}
{"sequence": "MDWITLLRSLQSDFIKRLSSGCLLHCEIEGQYSELTVISGERLKTLRDFCWLMAEKYKRVSPVRDVFISYLKGKLGEEVVKERLADLITEVDYEKRLGGDGKIDFTLTANPAIGIEVKSRHGNIDRVRWSVSAEEVEKNAVVVCIFIKEDVNEAQSSYHLLLAGFLPTQMIKLKTGNISFGIEQLLYGGGLWGYLEQLQASANYHQFQQSPPIYQYKPQPELLSKINQTQSIKPALFTGIKNILPYRQQEAINIDYIKIGDECFAQGEYTASIKNYSQALQASSDNCELYYKRGLSYYQLGDYEAAIADYSQAININLHDAKSYHKRGLALSQLAAYEAAIDDYNQAIRINPHAASIYKNRAEARSHLGDNQGAIEDYTQAIKINPQYADTYKNRGISRYLLATQPGFTQAIKINPNDANAYKNRGNARADIGDYLGAIEDYNQAIQINPKAADAYYNRGNARYDLGDEEGAIADYTQAIQINPSYADAYYNRGNVRAGIKDKQGAIADFQKAADIYRKEGKLAELKDTTERVVELEIEESIDILNF", "protein production": "failed"}
{"sequence": "MDWKVFLLRVAVALVLGALIGAERQLRQRLTGLRTNALVSTGACLFVLMTQGVPGLAGDASRIAAYVVSGIGFLGGGVIMRDGLNVRGLNTAATLWCTAAIGVLCSMGLLLEATLGSLVVLCANILLRDIAQRLNRQDVLPASEAEQRYEVQIVCRAEDEIQVRSLMLHSLGSSDLRLQSLHSEDLDNPAKLEVRAELLGTPEAPAQLERLVSRVSLEKGVSSVRWQVFELAAD", "protein production": "failed"}
{"sequence": "MDWTTLFFSFRGRINRAKYWLVGLIYVAAWMVFTVLAITWLGGVDPDQLFRFAGGAILIWLIAIALGLAGTWSGLATGVKRLHDRDKSGWWILLFWFGPSLLGGSNQTMEDSPVSLVLALIGLGIAIWGFVELGCLRGTPGPNQYGPDPLEPQGTLT", "protein production": "failed"}
{"sequence": "MDYDQQPIMYDEVELLIQAVDQQPHPLLRLRDKAIIQLGLQGGFRRSELANLKVHYLSFMRDKLKVRLPFSKSNQQGLREWKSLPDSEPFAAYHAVKSWLNESQITDGHLFRSISRDGKTLRPYHVNDNSKPKSTFSRNSGFLNGDDIYRIIKQYCLKAGLPAQYYGAHSLRSGCVTQLHENNKDILYIMARTGHTDPRSLRHYLKPKEDLEHHHHHH", "protein production": "failed"}
{"sequence": "MDYFRLAEKFLREMHAKYMKRVSRPGNTPRPWFDFSEERLLSRLFEEMDELREAVEKEDWENLRDELLDVANFCMYLWGKLSVKNIYDKGEEQ", "protein production": "not failed"}
{"sequence": "MDYKKTNAPSNTVTRDMMDLCADTGNIYETVAIIGKRANQISVEMKNDLSKKLQEFASYNDNLEEVFENREQIEISRYYEKLPKPTLIAAQEYEEGKVYFRNPAKEKEKLQ", "protein production": "not failed"}
{"sequence": "MDYKLIITLFTFCVAAFSGMKAAEAASFSVVADGLNNARGLSFGLDGALYVTEAGTGGNGACIPSVTGQGGSLCYGTSSTVLKIENGVTSPVLTGLPSIALADGTGAGGARDIQFDTTGKPYILMGYGANPTFRNNLGNIDLGKIIAPDFQTNSWTSIADLANYELVNNPDGGDINSNPLGFFIDGNNLIAVDAGANNLLSVQTNGTNLQTLSVFPQEILTNPVFPPSGTPSTEPGQVPTPTAPPPPQLPIQVVPSSVVRGPDGAYYVSQFTGFPFPEGGAKIYRVGTDGETTIYADGFTQLTDLEFDSAGNLYALQYANQSAWKGNFDGSLIKIAADGTRTTILSGNGLESPNALAIAPNGEIYITNRSDRPGLGQIIRVENSQAVPEPNSAFSVFLLGAFGVAWLRKSTSRVCLNQKP", "protein production": "failed"}
{"sequence": "MDYKSKTANDKEISIYYFSATGNSLKLSQDIAAAFGGAGLFRMTPSAGITASDSRIVGFIFPVYMGGLPGIVRRFLESYPFRKGVYYFSIGTYYTYKGCAVSVVDKIMSGKGVRLDYGYNLPTVGNCLKEYEVSSVRRTKILERAELYTSRIIDDLKKGKRKKPFPYCRLSDLLHKGLFNAFFSRSHLNFSLENGCMGCGVCERVCPVNNITLKNGVPRWGTGCEACHACVHWCPRNVIQIGKSKGRLQYHHPAVKRTMLYRVELEHHHHHH", "protein production": "not failed"}
{"sequence": "MDYLSQEEDLQFFDANEEMMALNPSGFGFDVWNDSPGSVVERRRKFLEWMGVEEEGRVETKDSVSGSSVESCFDGGEENSVEAEERSGECSSSSSEVSLSGSSVEVSEELSLRVDRNVGGCDVTRRQSSSMASCSSSRYCQVKETEKQRNIAGLVTSFKKGWLSRLRSMGCTADTNIESGGRMRASSGYGDVISRVKVKHCKKQAKELSALYQSQDIKAHDGAILAMKFSNDGKFLASSGEDGIVRVWKVVEDKKSRLRRDCLNEIDPSCMYFEVNDLSQLKPVLVNEEKPKKTTESFRKTSDSACVVFPPKVFRIMEKPLYEFRGHTGEVLDISWSKDNYLLSASMDKTVRLWKVGSNDCLGVFAHNSYVTSVQFNPVNENYFMSGSIDGKVRIWNISGCSVVDWADLKDIISAVCYRPDGQGGIIGSLNGSCRFFNMSGEFLELDSQIHLHNKKKSSNKRITGFQFLPQEPTKVLVVSADSKVRILQGNNVVRKYKGVCKTRSLTSASLTSDGKHIVSACEDSNVYIWSNDEESETKKIRSFERFSANASVAATWCGFSDHNTTLPFSSPSCLSHNEGFVPGSISKGSATWPEENLPANPLSTSAMNASHYKFLKSSYQRASSSLSWGMVIVTGGWDGQIRTFQNYGLPVTT", "protein production": "failed"}
{"sequence": "MDYTYTVMTQEEAEEIAYNWHYEGEYSFYDIEADEEDLAEFLHDESRGDHIFSVKEHGTLIGYFTVCKINDGTVDIGLGMKPNITGNGFGLQFINAILAFSKEKYGCKYITLSVATFNKRAIKVYKRAGFEAVGTFIQKTNGSCFEFLKMNYICKND", "protein production": "failed"}
{"sequence": "MEAEKKKLSIPPKGIRAIIEAIRLGEIIKPSQYAKREAFKKHDVEEAWLNRVLTMIFYDIMKKQGLIDKVIKEIVGVTPLILDPWLRAALRVAVDIALFHDPSSQTIKNLRWKASDFISSRTHPYVGMYFWDLLDKIFEYKPNPKNELEELEWKYLAPSWLIERVKGILGDETEDFFRSVNKRHEWISIRVNTLKANVEEVIGELEEDGVEVVRSERVPTILKIKGPYNFDTSSAFNEGKIIVQEEASAVASIVLDPKPGETVVDLAAAPGGKTTHLAELMKNKGKIYAFDVDKMRMKRLKDFVKRMGIKIVKPLVKDARKAPEIIGEEVADKVLLDAPCTSSGTIGKNPELRWRLREDKINEMSQLQRELLESAARLVKPGGRLLYTTCSIFKEENEKNIRWFLNVHPEFKLVPLKSPYDPGFLEGTMRAWPHRHSTIGFFYALLEKSK", "protein production": "not failed"}
{"sequence": "MEAGFVSVGDVTFRDLEDEAIVELVRKGNTDALEYLIHKYKNFVRAKSRSYFLVGADREDIVQEGMIGLFKAIRDYKEDKLSSFKAFAELCITRQIITAIKTATRQKHIPLNSYVSLDKPIYDEESDRTLLDVISEAKVTDPEEMIISQEEYTDIESKISELLSDLERKVLSLYLDGRSYQEISEQLNRHVKSIDNALQRVKRKLERYMEMRESTTLNS", "protein production": "failed"}
{"sequence": "MEAKKSNKIREIVKLQQLLKKWRKQAIASKAANNNNEDNNSSGGGSKSIKFLKRTLSFTDVTAVPKGYLAVSVGLEKKRYTIPTEYLSHQAFYVLLREAEEEFGFQQAGVLRIPCEVSVFESILKIMEEKNEGYLVTPITAKQECKFNAAADDKTSYQHPSDCPKTPSHQPHNSPMCR", "protein production": "not failed"}
